Earlier results in paper PMC3966486.

How the values were obtained:
His180 = His180 (UniProt position 208, LRRDSHKIDNY); conditions: unbound (free) monomer, not in the hormone-receptor complex
His27 [1] = molecular target: His27 (UniProt position 55, AVVLSHYIHNL); conditions: unbound (free) monomer, not in the hormone-receptor complex
His30 [2] = molecular target: His30 (UniProt position 58, LSHYIHNLSSE); conditions: unbound (free) monomer, not in the hormone-receptor complex
[3] = molecular target: human prolactin receptor extracellular domain (hPRLr-ECD), wild type (UniProt P16471); conditions: pH
human prolactin receptor extracellular domain (hPRLr-ECD), wild type, sequence (P16471 whole entry, the tested form may be a part): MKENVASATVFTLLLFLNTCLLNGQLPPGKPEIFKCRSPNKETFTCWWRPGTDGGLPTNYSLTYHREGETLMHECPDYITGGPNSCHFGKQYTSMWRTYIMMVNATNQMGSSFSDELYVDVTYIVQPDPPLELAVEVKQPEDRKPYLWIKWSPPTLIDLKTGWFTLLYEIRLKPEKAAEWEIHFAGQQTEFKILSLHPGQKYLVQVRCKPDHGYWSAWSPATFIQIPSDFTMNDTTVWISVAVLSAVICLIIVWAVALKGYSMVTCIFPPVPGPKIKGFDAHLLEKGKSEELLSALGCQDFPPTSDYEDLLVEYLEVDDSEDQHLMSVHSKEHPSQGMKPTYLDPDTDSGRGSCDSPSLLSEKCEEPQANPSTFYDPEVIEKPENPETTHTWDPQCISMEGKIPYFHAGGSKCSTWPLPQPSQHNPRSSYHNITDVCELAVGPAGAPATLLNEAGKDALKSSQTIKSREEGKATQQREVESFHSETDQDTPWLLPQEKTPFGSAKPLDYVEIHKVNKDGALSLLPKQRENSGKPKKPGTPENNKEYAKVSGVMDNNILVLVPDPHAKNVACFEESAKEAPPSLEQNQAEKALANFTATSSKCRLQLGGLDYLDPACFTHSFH

[4] = molecular target: human prolactin receptor extracellular domain (hPRLr-ECD), wild type (UniProt P16471); conditions: pH; remark: listed apart in the source
His30 [5] = molecular target: His30 (UniProt position 58, LSAYIHNLSSE); conditions: unbound (free) monomer, not in the hormone-receptor complex
His188 = His188 (UniProt position 212, RCKPDHGYWSA); conditions: unbound (free) monomer, not in the hormone-receptor complex
[6] = molecular target: human prolactin receptor extracellular domain (hPRLr-ECD), wild type (UniProt P16471); conditions: pH; remark: listed apart in the source
His27 [7] = molecular target: His27 (UniProt position 55, AVVLSHYIANL); conditions: unbound (free) monomer, not in the hormone-receptor complex

In the case of Prolactin (hPRL) (Homo sapiens), the pKa (His180) is listed as 6.1, the pKa (His27 [1]) is listed as 6.7 and the pKa (His30 [2]) is listed as 6.3.

For human prolactin H27A H27A, the pKa, His30 of hPRL H27A [3] is given as 6.5 pH units and the pKa, His180 of hPRL H27A [3] is given as 6.2 pH units.

For “Prolactin (hPRL) H180A (Homo sapiens; H180A)”, the pKa (His27 [1]) is listed as 6.8 and the pKa (His30 [2]) is listed as 6.7.

For human prolactin H180A H180A, the pKa, His27 of hPRL H180A [4] is given as 6.8 pH units and the pKa, His30 of hPRL H180A [4] is given as 6.7 pH units.

In the case of “Prolactin (hPRL) H27A (Homo sapiens; H27A)”, the pKa (His180) is listed as 6.2 and the pKa (His30 [5]) is listed as 6.5.

In the case of “Prolactin receptor extracellular domain (hPRLr-ECD) (Homo sapiens)”, the pKa (His188) is listed as 7.7.

In the case of human prolactin H30A H30A, the pKa, His27 of hPRL H30A [6] is given as 6.9 pH units and the pKa, His180 of hPRL H30A [6] is given as 6.3 pH units.

In the case of “Prolactin (hPRL) H30A (Homo sapiens; H30A)”, the pKa (His180) is listed as 6.3 and the pKa (His27 [7]) is listed as 6.9.
